Experimental data reported in paper PMC2651628.

Legend:
CFP-vinculin = CFP-vinculin (UniProt P18206); assay: FRET or BRET; u-adFRET (acceptor-depletion FRET with linear spectral unmixing) in U251MG cells co-transfected with YFP (Venus) acceptor and CFP donor fusions, fixed in 4% paraformaldehyde; FRET efficiency by region of the cell (cytosol, peripheral, focal adhesion)
CD44-CFP = CD44-CFP (UniProt P16070); assay: as above
UniProt P16070, sequence (P16070 21-742): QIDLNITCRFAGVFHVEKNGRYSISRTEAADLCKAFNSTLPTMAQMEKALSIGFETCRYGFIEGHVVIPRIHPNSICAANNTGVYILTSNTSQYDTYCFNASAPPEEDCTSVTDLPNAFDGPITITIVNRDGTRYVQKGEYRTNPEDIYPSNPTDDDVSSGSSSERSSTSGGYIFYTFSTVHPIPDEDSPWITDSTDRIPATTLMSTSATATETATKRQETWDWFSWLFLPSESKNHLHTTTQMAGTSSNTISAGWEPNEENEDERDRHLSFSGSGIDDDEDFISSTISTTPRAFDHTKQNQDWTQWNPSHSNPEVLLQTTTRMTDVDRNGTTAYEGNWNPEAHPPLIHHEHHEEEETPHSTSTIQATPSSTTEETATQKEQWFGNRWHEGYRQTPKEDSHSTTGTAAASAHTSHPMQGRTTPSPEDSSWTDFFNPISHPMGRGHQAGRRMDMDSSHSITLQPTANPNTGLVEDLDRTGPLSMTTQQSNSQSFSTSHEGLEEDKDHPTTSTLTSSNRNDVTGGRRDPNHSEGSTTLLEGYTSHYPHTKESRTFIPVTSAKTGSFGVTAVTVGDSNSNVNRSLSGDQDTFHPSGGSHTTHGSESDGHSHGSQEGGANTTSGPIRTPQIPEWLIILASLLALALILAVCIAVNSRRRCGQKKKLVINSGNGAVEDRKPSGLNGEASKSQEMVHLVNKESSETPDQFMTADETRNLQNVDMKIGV

UniProt P18206, sequence (P18206 whole entry, the tested form may be a part): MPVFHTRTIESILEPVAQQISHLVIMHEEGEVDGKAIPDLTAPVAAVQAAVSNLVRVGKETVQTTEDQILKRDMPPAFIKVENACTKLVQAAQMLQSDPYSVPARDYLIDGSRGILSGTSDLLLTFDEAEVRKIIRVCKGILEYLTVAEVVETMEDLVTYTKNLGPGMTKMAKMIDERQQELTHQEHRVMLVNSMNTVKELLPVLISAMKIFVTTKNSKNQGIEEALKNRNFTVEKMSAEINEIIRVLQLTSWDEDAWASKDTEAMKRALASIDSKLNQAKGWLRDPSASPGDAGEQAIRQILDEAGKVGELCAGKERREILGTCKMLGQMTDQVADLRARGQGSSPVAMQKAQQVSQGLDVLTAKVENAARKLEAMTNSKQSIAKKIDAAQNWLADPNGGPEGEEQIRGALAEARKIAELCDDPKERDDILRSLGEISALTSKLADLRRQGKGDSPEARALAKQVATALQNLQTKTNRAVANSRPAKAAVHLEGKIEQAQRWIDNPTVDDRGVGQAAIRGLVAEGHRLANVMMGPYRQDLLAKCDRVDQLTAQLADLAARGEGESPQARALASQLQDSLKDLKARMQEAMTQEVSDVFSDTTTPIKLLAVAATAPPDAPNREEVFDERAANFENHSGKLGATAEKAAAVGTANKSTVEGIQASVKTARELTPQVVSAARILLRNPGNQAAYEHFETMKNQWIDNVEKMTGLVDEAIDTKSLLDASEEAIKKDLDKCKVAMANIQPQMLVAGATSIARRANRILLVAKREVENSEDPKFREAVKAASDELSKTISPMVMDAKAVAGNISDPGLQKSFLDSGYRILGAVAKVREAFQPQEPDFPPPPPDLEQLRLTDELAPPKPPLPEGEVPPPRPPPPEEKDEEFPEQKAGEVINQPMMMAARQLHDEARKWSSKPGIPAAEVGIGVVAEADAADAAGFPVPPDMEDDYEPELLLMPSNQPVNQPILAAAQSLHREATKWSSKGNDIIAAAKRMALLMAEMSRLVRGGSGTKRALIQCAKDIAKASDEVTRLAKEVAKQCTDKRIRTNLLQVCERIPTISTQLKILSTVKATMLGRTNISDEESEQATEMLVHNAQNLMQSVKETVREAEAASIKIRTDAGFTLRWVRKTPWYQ

- FRET efficiency (FA, focal adhesion) (CFP-vinculin): 19
- FRET efficiency (cytosol) (CD44-CFP): -7
- FRET efficiency (peripheral) (CD44-CFP): -2
Substance: YFP-hMena (human Mena fused to monomeric Venus) (from UniProt Q8N8S7 1-591) (natural protein)
